Laboratory results taken from doi:10.1101/2020.05.01.072124.
Read-outs that look alike come from different tables or passages of the source.

Key:
[1] = target: Recombinant MEK1 (immobilised in SPR) (human) (UniProt Q02750); experiment: SPR
[2] = target: Recombinant MEK1 (immobilised in SPR) (human) (UniProt Q02750); experiment: SPR; remark: listed apart in the source

Work on “HIS-CCS (copper chaperone for superoxide dismutase) (from UniProt O14618 1-274) (natural protein)” yielded a Kd [1] of 2.09 µM and a Kd [2] of 8 µM.
